Experiment [1] addresses T1, native FcγRIIA expressed on K562 cells (human, UniProt P12318 34-317).
T1 construct: whole, on cells
T1 sequence (looked up): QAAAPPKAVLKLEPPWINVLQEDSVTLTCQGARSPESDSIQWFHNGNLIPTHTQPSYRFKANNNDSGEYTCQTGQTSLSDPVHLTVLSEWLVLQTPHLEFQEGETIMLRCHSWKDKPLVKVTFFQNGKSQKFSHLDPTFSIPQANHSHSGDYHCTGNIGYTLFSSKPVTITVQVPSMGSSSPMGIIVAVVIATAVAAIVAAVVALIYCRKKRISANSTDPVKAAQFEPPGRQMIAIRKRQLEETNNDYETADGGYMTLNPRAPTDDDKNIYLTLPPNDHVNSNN
The experiment can be described thus: flow cytometry on K562 cells. The procedure: FIG. 5: Binding of 15 μg/ml antibody (hu8A6_VH+hu8A6_VL and ch8A6_N297A) to native FcγRIIA expressed on K562 cells.
Raji and K562 cells were incubated with increasing concentrations of humanized antibodies and the chimeric antibody as control. Raji cells were used to test binding on FcγRIIB (FIG. 4), K562 cells to analyze unspecific binding to FcγRIIA (FIG. 5). Cell bound antibodies were detected with PE-conjugated secondary antibody.
On the technique in general: A flow cytometer gives signals particle by particle.

The target of experiment [2] is T2, native FcγRIIB, membrane-bound, endogenously expressed on human cells (Raji, Daudi, PBMC) (human, UniProt P31994 43-310).
T2 sequence (looked up): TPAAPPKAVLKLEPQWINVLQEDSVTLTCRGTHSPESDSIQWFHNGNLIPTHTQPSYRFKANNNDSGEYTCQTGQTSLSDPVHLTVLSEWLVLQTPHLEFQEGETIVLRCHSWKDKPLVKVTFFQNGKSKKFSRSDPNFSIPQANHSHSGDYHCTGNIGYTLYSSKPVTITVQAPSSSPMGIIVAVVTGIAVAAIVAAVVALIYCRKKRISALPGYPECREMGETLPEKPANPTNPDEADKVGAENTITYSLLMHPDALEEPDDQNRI
Nature of the experiment: cell-based or functional assay.

For experiment [3], the target named is T3, recombinant soluble human FcγRIIB (human, UniProt P31994 43-217).
T3 construct: also called sFcγRIIB
T3 sequence: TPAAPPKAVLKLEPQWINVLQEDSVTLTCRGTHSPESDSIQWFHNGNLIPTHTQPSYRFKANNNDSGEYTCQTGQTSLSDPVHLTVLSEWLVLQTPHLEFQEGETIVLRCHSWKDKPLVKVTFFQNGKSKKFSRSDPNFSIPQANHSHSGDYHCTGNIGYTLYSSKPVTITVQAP
Nature of the experiment: ELISA, sFcγRIIB coated on plates, hybridoma supernatant.

This is an account of results in patent US20160185857A1 (SUPPREMOL, published 2016).

B1: ch8A6_N297A (chimeric 8A6, rat variable regions, human IgG1 N297A constant region, human kappa) (antibody)
heavy: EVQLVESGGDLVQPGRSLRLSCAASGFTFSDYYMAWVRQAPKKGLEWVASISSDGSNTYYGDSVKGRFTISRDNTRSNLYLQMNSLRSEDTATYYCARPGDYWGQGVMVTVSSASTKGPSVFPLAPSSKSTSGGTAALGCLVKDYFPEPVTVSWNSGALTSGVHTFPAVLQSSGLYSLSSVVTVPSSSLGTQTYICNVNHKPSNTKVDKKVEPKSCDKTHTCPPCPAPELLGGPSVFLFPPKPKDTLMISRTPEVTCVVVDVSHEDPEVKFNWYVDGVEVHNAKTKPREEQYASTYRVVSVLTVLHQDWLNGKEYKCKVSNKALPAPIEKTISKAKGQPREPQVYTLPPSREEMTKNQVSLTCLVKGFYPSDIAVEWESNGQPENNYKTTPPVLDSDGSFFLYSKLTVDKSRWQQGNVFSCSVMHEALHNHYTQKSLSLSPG
light: NIVMTQSPTSMFISVGDRVTMNCKASQNVGTYVDWFQQKTGQSPTLLIFGASNRYTGVPDRFTGSGSGTDFTLSISNMQAEDLAVYYCLQYNYHPYTFGPGTTLELKRTVAAPSVFIFPPSDEQLKSGTASVVCLLNNFYPREAKVQWKVDNALQSGNSQESVTEQDSKDSTYSLSSTLTLSKADYEKHKVYACEVTHQGLSSPVTKSFNRGEC
notes: also called chimeric 8A6_N297A
For B1, in experiment [1], the binding result is “no binding (tested: 15 µg/ml)”.

B2: chGB3_N297A (chimeric GB3, prior art antibody of WO 2005/051999, N297A format) (antibody, V domains shown)
VH: VQLQQSGPELVKPGASVKISCKASGYTFTDYYIYWVKQWPGQGLEWIGWIFPGTGNTYYNENFKDKATLTIDRSSSTAYMLLGSLTSEDSAVYFCYGPFAYWGQ
VL: RIQLTQSPSSLSASLGERVSLTCRASQEISGYLSWLQQKPDGTIKRLIYATSALDSGVPKRFSGSGSGSNYSLTISSLESEDFADYYCLQYANYPYTFGGGTKL
B2: the “maximum fold phospho-signal of the FcγRIIB ITIM against untreated cells, densitometry of Western blot, Daudi cells” value in experiment [2] came out at 2.8 fold.

B3: monoclonal antibody 8A6 (rat IgG2a) (antibody, V domains shown)
VH: EVQLVESGGDLVQPGRSLRLSCAASGFTFSDYYMAWVRQAPKKGLEWVASISSDGSNTYYGDSVKGRFTISRDNTRSNLYLQMNSLRSEDTATYYCARPGDYWGQGVMVTVSS
VL: NIVMTQSPTSMFISVGDRVTMNCKASQNVGTYVDWFQQKTGQSPTLLIFGASNRYTGVPDRFTGSGSGTDFTLSISNMQAEDLAVYYCLQYNYHPYTFGPGTTLELKR
notes: Rat IgG2a from hybridoma supernatant; also called mAb 8A6; rat antibody 8A6
As to B3, the binding result in experiment [3] is recorded as “binds”.
